Assay results reported in article PMC8070792, “Impaired Ca^2+ Sensitivity of a Novel GCAP1 Variant Causes Cone Dystrophy and Leads to Abnormal Synaptic Transmission Between Photoreceptors and Bipolar Cells” (International Journal of Molecular Sciences, 2021).
Like-named read-outs stand apart in the source and are kept apart here.

Experiments:
[1] = biological target: T1, human guanylate cyclase 1 (GC1) (human, UniProt Q02846 52-1103)
T1 sequence (looked up): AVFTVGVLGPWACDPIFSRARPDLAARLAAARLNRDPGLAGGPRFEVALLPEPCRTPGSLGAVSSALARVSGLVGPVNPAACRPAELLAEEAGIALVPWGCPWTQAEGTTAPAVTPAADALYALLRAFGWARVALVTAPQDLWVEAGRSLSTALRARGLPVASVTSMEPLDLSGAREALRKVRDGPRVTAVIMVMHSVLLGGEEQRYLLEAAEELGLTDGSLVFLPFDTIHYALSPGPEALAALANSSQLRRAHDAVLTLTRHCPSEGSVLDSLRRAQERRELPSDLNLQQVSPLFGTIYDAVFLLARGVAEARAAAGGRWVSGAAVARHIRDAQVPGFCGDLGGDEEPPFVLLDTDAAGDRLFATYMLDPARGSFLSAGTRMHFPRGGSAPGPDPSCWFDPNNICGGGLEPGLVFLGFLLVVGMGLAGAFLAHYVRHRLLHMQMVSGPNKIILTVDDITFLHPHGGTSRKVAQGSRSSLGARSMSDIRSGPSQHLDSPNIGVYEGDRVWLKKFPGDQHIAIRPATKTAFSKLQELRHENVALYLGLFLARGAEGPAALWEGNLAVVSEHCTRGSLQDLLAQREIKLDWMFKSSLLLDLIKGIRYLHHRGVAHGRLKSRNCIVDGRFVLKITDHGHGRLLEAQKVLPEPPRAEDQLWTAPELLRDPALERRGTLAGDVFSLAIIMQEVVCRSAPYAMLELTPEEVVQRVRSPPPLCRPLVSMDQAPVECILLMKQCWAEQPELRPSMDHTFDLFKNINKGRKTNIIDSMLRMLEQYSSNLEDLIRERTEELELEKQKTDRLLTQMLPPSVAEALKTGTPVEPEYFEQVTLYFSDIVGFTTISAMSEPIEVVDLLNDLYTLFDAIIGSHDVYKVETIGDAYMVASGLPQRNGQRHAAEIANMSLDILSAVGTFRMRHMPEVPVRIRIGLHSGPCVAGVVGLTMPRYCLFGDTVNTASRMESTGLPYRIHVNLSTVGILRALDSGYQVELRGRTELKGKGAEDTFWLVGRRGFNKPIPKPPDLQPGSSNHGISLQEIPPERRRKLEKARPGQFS

[2] = biological target: T2, human guanylate cyclase 2 (GC2) (human, UniProt P51841 51-1108)
T2 sequence (looked up): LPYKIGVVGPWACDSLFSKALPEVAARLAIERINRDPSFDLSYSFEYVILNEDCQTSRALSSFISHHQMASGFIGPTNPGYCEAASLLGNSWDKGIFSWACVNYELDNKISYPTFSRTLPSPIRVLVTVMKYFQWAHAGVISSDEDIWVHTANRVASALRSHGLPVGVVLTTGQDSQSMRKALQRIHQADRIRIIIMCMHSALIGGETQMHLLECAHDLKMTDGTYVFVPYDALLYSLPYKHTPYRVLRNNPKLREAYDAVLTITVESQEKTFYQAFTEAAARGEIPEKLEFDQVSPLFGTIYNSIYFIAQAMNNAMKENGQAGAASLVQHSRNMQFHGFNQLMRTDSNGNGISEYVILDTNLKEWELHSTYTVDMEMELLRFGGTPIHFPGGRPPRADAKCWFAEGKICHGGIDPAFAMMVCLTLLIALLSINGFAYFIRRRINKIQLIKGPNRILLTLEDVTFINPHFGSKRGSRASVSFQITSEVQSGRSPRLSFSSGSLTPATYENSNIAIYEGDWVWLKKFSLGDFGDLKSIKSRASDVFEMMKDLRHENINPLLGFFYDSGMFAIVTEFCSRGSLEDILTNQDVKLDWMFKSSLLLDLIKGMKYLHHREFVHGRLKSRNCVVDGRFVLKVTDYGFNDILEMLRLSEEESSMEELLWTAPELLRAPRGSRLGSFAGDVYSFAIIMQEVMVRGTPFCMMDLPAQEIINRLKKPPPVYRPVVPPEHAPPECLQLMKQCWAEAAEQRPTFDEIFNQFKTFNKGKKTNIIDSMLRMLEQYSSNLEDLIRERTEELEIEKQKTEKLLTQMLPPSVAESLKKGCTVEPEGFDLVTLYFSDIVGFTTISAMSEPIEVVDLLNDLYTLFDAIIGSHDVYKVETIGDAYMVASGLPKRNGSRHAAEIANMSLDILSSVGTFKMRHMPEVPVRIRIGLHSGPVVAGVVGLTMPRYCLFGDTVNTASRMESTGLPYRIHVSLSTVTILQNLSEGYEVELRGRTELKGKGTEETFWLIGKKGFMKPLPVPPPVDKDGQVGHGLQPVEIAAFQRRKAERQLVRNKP

[3] = biological target: T1, human guanylate cyclase 1 (GC1); assay: cell-based or functional assay
[4] = biological target: T2, human guanylate cyclase 2 (GC2); assay: cell-based or functional assay
[5] = biological target: the molecule itself; assay: SEC; analytical SEC on Superose 12 10/300 GL; 42 µM protein, 200 µl injected; 20 mM Tris-HCl pH 7.5, 150 mM KCl, 1 mM DTT; with 500 µM EGTA + 1 mM Mg2+ or 500 µM Ca2+ + 1 mM Mg2+; apparent molecular mass from a calibration curve

| Binder | X-fold of Ca2+-dependent regulation of GC1 (cGMP synthesis by HEK293 membranes with 5 µM GCAP1, low Ca2+ <19 nM against high Ca2+ ~30 µM) [1] | X-fold of Ca2+-dependent regulation of GC2 (cGMP synthesis by HEK293 membranes with 5 µM GCAP1, low Ca2+ <19 nM against high Ca2+ ~30 µM) [2] | X-fold of Ca2+-dependent regulation of GC1 (cGMP synthesis by HEK293 membranes with 5 µM GCAP1, low Ca2+ <19 nM against high Ca2+ ~30 µM) [3] | X-fold of Ca2+-dependent regulation of GC2 (cGMP synthesis by HEK293 membranes with 5 µM GCAP1, low Ca2+ <19 nM against high Ca2+ ~30 µM) [4] | stoichiometry N [5] |
| --- | --- | --- | --- | --- | --- |
| wild-type human GCAP1-E6S (guanylate cyclase-activating protein 1, myristoylated) (natural protein, myristoylation on the N-terminal Gly residue) MGNVMSGKSVEELSSTECHQWYKKFMTECPSGQLTLYEFRQFFGLKNLSPSASQYVEQMFETFDFNKDGYIDFMEYVAALSLVLKGKVEQKLRWYFKLYDVDGNGCIDRDELLTIIQAIRAINPCSDTTMTAEEFTDTVFSKIDVNGDGELSLEEFIEGVQKDQMLLDTLTRSLDLTRIVRRLQNGEQDEEGADEAAEAAG | 37.4 | 10.8 |  |  |  |
| GCAP1 N104K-G105R (guanylate cyclase-activating protein 1, myristoylated, on the E6S background) (natural protein, human, UniProt P43080 1-201, looked up, myristoylation on the N-terminal Gly residue, cDNA in pET-11a between NdeI and NheI; E6S introduced to allow myristoylation by yeast NMT; N104K and G105R introduced by site-directed mutagenesis; N104K-G105R is the patient's variant; E6S is a change made by people; Myristoylation on the N-terminal Gly implies that the initiator Met is removed (surmised); No tag is mentioned; also called N104K-G105R GCAP1; double mutant; source: E. coli …) MGNVMSGKSVEELSSTECHQWYKKFMTECPSGQLTLYEFRQFFGLKNLSPSASQYVEQMFETFDFNKDGYIDFMEYVAALSLVLKGKVEQKLRWYFKLYDVDGKRCIDRDELLTIIQAIRAINPCSDTTMTAEEFTDTVFSKIDVNGDGELSLEEFIEGVQKDQMLLDTLTRSLDLTRIVRRLQNGEQDEEGADEAAEAAG |  |  | 0.47 | 0.6 | 2 |
